What was measured:
scar2_arath SCAR2 = scar2_arath SCAR2 (UniProt Q5XPJ9)
spk1_arath SPK1 = spk1_arath SPK1 (UniProt Q8SAB7)
scar1_arath SCAR1 = scar1_arath SCAR1 (UniProt Q6AWX6)
scarl_arath WAVE5 = scarl_arath WAVE5 (UniProt Q5XPK0)

Rac-like GTP-binding protein ARAC9 (Arabidopsis thaliana (Mouse-ear cress)), Q9XGU0 G27V, sequence (Q9XGU0 whole entry G27V): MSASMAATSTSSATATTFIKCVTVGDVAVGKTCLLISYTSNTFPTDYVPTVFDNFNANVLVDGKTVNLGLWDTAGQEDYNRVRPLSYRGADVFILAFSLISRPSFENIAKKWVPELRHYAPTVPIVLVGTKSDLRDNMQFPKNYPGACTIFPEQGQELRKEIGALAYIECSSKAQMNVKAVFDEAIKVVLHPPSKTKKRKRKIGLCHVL
scar2_arath SCAR2, sequence (Q5XPJ9 whole entry): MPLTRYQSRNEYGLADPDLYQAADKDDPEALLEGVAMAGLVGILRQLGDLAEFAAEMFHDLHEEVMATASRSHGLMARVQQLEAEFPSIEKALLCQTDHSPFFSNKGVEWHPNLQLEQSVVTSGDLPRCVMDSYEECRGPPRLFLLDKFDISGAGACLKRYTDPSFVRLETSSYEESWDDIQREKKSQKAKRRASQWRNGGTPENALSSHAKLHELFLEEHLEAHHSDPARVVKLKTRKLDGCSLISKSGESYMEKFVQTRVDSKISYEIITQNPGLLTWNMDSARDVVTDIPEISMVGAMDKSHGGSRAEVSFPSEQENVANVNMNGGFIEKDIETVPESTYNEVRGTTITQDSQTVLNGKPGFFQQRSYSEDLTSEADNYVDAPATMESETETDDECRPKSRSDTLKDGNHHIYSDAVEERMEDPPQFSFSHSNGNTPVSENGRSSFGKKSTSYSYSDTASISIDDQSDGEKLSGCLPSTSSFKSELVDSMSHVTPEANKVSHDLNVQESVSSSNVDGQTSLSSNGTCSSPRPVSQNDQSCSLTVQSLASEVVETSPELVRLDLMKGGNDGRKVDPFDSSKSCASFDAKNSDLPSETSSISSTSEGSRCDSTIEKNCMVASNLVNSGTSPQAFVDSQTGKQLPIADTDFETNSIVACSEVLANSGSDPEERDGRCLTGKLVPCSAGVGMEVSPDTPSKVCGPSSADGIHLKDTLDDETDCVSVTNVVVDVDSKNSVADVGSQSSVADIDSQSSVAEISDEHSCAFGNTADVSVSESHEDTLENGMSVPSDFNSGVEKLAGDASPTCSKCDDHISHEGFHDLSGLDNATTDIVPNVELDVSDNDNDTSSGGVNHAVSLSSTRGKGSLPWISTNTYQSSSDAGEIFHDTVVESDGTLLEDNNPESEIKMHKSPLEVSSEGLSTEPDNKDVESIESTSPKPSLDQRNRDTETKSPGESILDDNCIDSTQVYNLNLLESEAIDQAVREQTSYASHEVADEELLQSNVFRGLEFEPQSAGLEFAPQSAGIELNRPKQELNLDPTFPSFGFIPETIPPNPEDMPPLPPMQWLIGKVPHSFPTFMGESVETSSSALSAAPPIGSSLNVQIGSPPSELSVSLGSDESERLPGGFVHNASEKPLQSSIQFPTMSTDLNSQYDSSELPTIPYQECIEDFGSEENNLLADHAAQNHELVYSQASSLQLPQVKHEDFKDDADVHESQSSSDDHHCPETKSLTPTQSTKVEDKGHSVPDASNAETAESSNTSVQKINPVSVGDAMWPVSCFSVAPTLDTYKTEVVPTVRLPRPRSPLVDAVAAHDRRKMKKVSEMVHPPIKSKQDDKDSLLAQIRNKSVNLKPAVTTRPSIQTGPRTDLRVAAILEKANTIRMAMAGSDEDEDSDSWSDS
scar1_arath SCAR1, sequence (Q6AWX6 whole entry): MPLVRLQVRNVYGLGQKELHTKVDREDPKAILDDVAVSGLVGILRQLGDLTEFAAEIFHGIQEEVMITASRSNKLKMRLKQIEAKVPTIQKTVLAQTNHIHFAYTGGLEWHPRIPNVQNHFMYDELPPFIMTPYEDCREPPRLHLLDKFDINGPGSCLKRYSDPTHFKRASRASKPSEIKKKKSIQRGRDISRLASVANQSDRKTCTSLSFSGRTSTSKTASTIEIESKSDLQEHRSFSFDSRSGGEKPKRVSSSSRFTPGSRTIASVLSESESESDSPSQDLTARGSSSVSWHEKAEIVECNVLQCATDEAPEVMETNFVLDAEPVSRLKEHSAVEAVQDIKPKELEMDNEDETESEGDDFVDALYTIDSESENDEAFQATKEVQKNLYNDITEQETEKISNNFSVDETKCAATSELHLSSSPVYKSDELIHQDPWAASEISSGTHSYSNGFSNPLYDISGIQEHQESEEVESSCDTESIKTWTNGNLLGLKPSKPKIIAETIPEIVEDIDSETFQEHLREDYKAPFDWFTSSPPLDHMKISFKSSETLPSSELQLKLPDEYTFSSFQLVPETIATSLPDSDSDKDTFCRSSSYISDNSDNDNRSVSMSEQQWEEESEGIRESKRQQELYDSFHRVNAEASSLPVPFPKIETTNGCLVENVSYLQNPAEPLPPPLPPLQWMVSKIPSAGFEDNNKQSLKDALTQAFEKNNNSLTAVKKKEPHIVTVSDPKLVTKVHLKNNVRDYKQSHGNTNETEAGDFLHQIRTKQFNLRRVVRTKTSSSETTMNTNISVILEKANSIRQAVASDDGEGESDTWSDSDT
spk1_arath SPK1, sequence (Q8SAB7 whole entry): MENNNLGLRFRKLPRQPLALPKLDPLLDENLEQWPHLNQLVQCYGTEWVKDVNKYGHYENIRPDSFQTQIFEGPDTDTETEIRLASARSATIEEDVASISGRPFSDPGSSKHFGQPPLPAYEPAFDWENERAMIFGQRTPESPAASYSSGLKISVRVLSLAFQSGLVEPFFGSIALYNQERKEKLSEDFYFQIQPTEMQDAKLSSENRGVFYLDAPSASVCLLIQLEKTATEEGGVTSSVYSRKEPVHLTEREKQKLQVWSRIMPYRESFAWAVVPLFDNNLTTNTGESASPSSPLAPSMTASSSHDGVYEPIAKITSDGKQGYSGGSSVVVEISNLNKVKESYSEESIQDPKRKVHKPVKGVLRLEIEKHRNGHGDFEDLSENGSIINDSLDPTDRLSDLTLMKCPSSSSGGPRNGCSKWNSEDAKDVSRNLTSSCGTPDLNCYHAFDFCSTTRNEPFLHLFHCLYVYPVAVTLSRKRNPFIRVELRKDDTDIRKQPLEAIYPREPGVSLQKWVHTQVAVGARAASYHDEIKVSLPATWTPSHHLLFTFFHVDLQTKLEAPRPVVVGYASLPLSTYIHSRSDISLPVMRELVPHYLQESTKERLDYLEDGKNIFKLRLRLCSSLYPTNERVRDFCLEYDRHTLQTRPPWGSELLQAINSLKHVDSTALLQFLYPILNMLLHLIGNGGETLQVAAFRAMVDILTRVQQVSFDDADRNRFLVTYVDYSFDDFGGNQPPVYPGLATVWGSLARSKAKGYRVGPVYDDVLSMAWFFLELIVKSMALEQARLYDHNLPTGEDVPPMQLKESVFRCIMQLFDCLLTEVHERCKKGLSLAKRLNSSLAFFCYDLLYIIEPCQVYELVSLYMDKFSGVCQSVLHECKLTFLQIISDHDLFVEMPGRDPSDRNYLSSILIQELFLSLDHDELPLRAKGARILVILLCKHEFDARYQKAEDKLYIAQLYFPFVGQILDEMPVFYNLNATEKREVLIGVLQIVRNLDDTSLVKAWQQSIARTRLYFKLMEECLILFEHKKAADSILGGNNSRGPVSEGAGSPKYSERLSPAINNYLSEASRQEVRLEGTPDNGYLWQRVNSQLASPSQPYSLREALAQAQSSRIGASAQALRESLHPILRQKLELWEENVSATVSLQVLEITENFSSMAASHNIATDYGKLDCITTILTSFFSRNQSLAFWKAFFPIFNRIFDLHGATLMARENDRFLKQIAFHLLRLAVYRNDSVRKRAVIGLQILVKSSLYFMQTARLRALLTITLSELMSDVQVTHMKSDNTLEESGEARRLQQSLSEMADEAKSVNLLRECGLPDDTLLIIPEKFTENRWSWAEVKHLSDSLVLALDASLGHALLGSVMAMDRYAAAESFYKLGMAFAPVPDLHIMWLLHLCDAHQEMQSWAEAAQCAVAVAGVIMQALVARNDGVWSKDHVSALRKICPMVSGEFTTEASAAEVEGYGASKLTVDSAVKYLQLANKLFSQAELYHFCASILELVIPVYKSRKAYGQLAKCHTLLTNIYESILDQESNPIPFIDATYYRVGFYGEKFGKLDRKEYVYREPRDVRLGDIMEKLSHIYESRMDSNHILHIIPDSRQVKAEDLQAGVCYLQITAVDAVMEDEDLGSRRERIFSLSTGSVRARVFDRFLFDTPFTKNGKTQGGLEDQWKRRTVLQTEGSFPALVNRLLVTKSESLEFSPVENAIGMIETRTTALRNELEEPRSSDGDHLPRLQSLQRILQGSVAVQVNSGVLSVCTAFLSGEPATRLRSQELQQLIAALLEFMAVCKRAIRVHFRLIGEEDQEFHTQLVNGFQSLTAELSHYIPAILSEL
Rac-like GTP-binding protein ARAC2 (Arabidopsis thaliana (Mouse-ear cress)), Q38903 T20D, sequence (Q38903 whole entry T20D): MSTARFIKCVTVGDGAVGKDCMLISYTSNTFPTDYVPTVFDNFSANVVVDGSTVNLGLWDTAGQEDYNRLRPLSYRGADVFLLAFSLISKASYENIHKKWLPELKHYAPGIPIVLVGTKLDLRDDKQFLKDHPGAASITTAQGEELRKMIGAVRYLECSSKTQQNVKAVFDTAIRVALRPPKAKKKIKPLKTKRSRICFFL

effect of a mutation on the interaction (scar2_arath SCAR2)	effect of a mutation on the interaction (spk1_arath SPK1)	effect of a mutation on the interaction (scar1_arath SCAR1)	effect of a mutation on the interaction (scarl_arath WAVE5)	Substance
disrupting interaction				Rac-like GTP-binding protein ARAC2 (Arabidopsis thaliana (Mouse-ear cress)), Q38903 T20D
	disrupting interaction	disrupting interaction	disrupting interaction	Rac-like GTP-binding protein ARAC9 (Arabidopsis thaliana (Mouse-ear cress)), Q9XGU0 G27V

Reference: IntAct's records for PubMed 17267444
